According to the supplement of paper PMC10471632, “Protein engineering and iterative multimodule optimization for vitamin B6 production in Escherichia coli” (Nature Communications, 2023):
± gives the standard deviation of the averaged measurements.

B1: library; numbered along this chain (parent)
chain: MAELLLGVNIDHIATLRNARGTAYPDPVQAAFIAEQAGADGITVHLREDRRHITDRDVRILRQTLDTRMNLEMAVTEEMLAIAVETKPHFCCLVPEKRQEVTTEGGLDVAGQRDKMRDACKRLADAGIQVSLFIDADEEQIKAAAEVGAPFIEIHTGCYADAKTDAEQAQELARIAKAATFAASLGLKVNAGHGLTYHNVKAIAAIPEMHELNIGHAIIGRAVMTGLKDAVAEMKRLMLEARG

Variants of: B1
Assay: pyridoxine titer in culture supernatant of strain expressing the PdxJ variant; higher = more PN produced (higher in vivo pathway activity of the PdxJ variant)
Settings: host strain: E. coli LL006; 48 h; temperature: 37 °C; FM1.4
Method: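 Rosetta-designed single to quadruple mutants of E. coli PdxJ (PNP synthase) were expressed from pRSFDuet-1 in the engineered chassis E. coli LL006 (MG1655 ΔpdxH::pdxST, pta::Eme_pdxP). Strains were grown in 24 deep-well plates in 2 mL FM1.4 glycerol medium at 37 °C and 800 rpm for 48 h. Extracellular pyridoxine (PN) titer was quantified by HPLC with fluorescence detection; two biological replicates, with the WT pdxJ strain (LL137, about 0.5 mg/L) as control.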

Row | Variant | pyridoxine titer
1 | MAELLLIVNIDHIATLRNARGTAYPDPVQAAFIAEQAGADGITVHLREDRRHITDRDVRILRQTLDTRMNLEMAVTEEMLAIAVETKPHFCCLVPEKRQEVTTTGGLDVAGQRDKMRDACKRLADAGIQVSLFIDADEEQIKAAAEVGAPFIEIHTGCYADAKTDAEQAQELARIAKAATFAASLGLKVNAGHCLTYHNVKAIAAIPEMHELNIGHALIGRAVMTGLKDAVAEMKRLMLEARG [G7I E104T G194C I218L] | 2.32 ± 0.19 mg/L
2 | MAELLLLVNIDHIATLRNARGTAYPDPVQAAFIAEQAGADGITVHLREDRRHITDRDVRILRQTLDTRMNLEMAVTEEMLAIAVETKPHFCCLVPEKRQEVTTEGGLDVAGQRDKMRDACKRLADAGIQVSLFIDADEEQIKAAAEVGAPFIEIHTGCYADAKTDAEQAQELARIAKAATFAASLGLKVNAGHGLTYHNVKAIAAIPEMHELNIGHAIIGRAVMTGLKDAVAEMKRLMLEARG [G7L] | 0.9583 ± 0.0052 mg/L
3 | MAELLLLVNIDHIATLRNARGTAYPDPVQAAFIAEQAGADGITVHLREDRRHITDRDVRILRQTLDTRMNLEMAVTEEMLAIAVETKPHFCCLVPEKRQEVTTTGGLDVAGQRDKMRDACKRLADAGIQVSLFIDADEEQIKAAAEVGAPFIEIHTGCYADAKTDAEQAQELARIAKAATFAASLGLKVNAGHGLTYHNVKAIAAIPEMHELNIGHAIIGRAVMTGLKDAVAEMKRLMLEARG [G7L E104T] | 0.65 ± 0.014 mg/L
4 | MAELLLLVNIDHIATLRNARGTAYPDPVQAAFIAEQAGADGITVHLREDRRHITDRDVRILRQTLDTRMNLEMAVTEEMLAIAVETKPHFCCLVPEKRQEVTTEGGLDVAGQRDKMRDACKRLADAGIQVSLFIDADEEQIKAAAEVGAPFIEIITGCYADAKTDAEQAQELARIAKAATFAASLGLKVNAGHGLTYHNVKAIAAIPEMHELNIGHAIIGRAVMTGLKDAVAEMKRLMLEARG [G7L H155I] | 0.72 ± 0.071 mg/L
5 | MAELLLLVNIDHIATLRNARGTAYPDPVQAAFIAEQAGADGITVHLREDRRHITDRDVRILRQTLDTRMNLEMAVTEEMLAIAVETKPHFCCLVPEKRQEVTTEGGLDVAGQRDKMRDACKRLADAGIQVSLFIDADEEQIKAAAEVGAPFIELHTGCYADAKTDAEQAQELARIAKAATFAASLGLKVNAGHGLTYHNVKAIAAIPEMHELNIGHAIIGRAVMTGLKDAVAEMKRLMLEARG [G7L I154L] | 0.82 ± 0.68 mg/L
6 | MAELLLLVNIDHIATLRNARGTAYPDPVQAAFIAEQAGADGITVHLREDRRHITDRDVRILRQTLDTRMNLEMAVTEEMLAIAVETKPHFCCLVPEKRQEVTTEGGLDVAGQRDKMRDACKRLADAGIQVSLFIDADEEQIKAAAEVGAPFIEIHTGCYADAKTDAEQAQELARIAKAATFAASLGLKVNAGHGLTYHNVKAIAAIPEMHELNIGHALIGRAVMTGLKDAVAEMKRLMLEARG [G7L I218L] | 0.76 mg/L
7 | MAELLLLVNIDHIATLRNARGTAYPDPVQAAFIAEQAGADGITVHLREDRRHITDRDVRILRQTLDTRMNLEMAVTEEMLAIAVETKPHFCCLVPEKRQEVTTEGGLDVAGQRDKMRDACKRLADAGIQVSLFIDADEEQIKAAAEVGAPFIEIHTGCYADAKTDAEQAQELARIAKAATFAASLGLKVNAGHGLTYHNVKAIAAIPEMHELIIGHAIIGRAVMTGLKDAVAEMKRLMLEARG [G7L N213I] | 0.6 ± 0.11 mg/L
8 | MAELLLLVNIDHIATLRNARGTAYPDPVQAAFIAEQAGADGITVHLREDRRHITDRDVRILRQTLDTRMNLEMAVTEEMLAIAVETKPHFCCLVPEKRQEVTLTGGLDVAGQRDKMRDACKRLADAGIQVSLFIDADEEQIKAAAEVGAPFIEIHTGCYADAKTDAEQAQELARIAKAATFAASLGLKVNAGHGLTYHNVKAIAAIPEMHELNIGHAIIGRAVMTGLKDAVAEMKRLMLEARG [G7L T103L E104T] | 7.1 ± 0.35 mg/L
9 | MAELLLMVNIDHIATLRNARGTAYPDPVQAAFIAEQAGADGITVHLREDRRHITDRDVRILRQTLDTRMNLEMAVTEEMLAIAVETKPHFCCLVPEKRQEVTTTGGLDVAGQRDKMRDACKRLADAGIQVSLFIDADEEQIKAAAEVGAPFIEIHTGCYADAKTDAEQAQELARIAKAATFAASLGLKVNAGHCLTYHNVKAIAAIPEMHELNIGHALIGRAVMTGLKDAVAEMKRLMLEARG [G7M E104T G194C I218L] | 0.955 ± 0.033 mg/L
10 | MAELLLMVNIDHIATLRNARGTAYPDPVQAAFIAEQAGADGITVHLREDRRHITDRDVRILRQTLDTRMNLEMAVTEEMLAIAVETKPHFCCLVPEKRQEVTTEGGLDVAGQRDKMRDACKRLADAGIQVSLFIDADEEQIKAAAEVGAPFIEIHTGCYADAKTDAEQAQELARIAKAATFAASLGLKVNAGHGLCYHNVKAIAAIPEMHEINIGHAIIGRAVMTGLKDAVAEMKRLMLEARG [G7M T196C L212I] | 6.32 ± 1.8 mg/L
11 | MAELLLWVNLDHIATLRNARGTAYPDPVQAAFIAEQAGADGITVHLREDRRHITDRDVRILRQTLDTRMNLEMAVTEEMLAIAVETKPHFCCLVPEKRQEVTTEGGLDVAGQRDKMRDACKRLADAGIQVSLFIDADEEQIKAAAEVGAPFIEIHTGCYADAKTDAEQAQELARIAKAATFAASLGLKVNAGHGLTYHNVKAIAAIPEMHELNIGHALIGRAVMTGLKDAVAEMKRLMLEARG [G7W I10L I218L] | 0.2 ± 0.014 mg/L
12 | MAELLLGVNLDHIATLRNARGTAYPDPVQAAFIAEQAGADGITVHLREDRRHITDRDVRILRQTLDTRMNLEMAVTEEMLAIAVETKPHFCCLVPEKRQEVTTEGGLDVAGQRDKMRDACKRLADAGIQVSLFIDADEEQIKAAAEVGAPFIEIHTGCYADAKTDAEQAQELARIAKAATFAASLGLKVNAGHGLTYHNVKAIAAIPEMHELNIGHAIIGRAVMTGLKDAVAEMKRLMLEARG [I10L] | 2.82 ± 0.43 mg/L
13 | MAELLLGVNLDHIITLRNARGTAYPDPVQAAFIAEQAGADGITVHLREDRRHITDRDVRILRQTLDTRMNLEMAVTEEMLAIAVETKPHFCCLVPEKRQELTTEGGLDVAGQRDKMRDACKRLADAGIQVSLFIDADEEQIKAAAEVGAPFIEIHTGCYADAKTDAEQAQELARIAKAATFAASLGLKVNAGHGLTYHNVKAIAAIPEMHELNIGHAIIGRAVMTGLKDAVAEMKRLMLEARG [I10L A14I V101L] | 0.31 ± 0.014 mg/L
14 | MAELLLGVNLDHIATLRNCRGTAYPDPVQAAFIAEQAGADGITVHLREDRRHITDRDVRILRQTLDTRMNLEMAVTEEMLAIAVETKPHFCCLVPEKRQELTTTGGLDVAGQRDKMRDACKRLADAGIQVSLFIDADEEQIKAAAEVGAPFIEIHTGCYADAKTDAEQAQELARIAKAATFAASLGLKVNAGHGLTYHNVKAIAAIPEMHELNIGHAIIGRAVMTGLKDAVAEMKRLMLEARG [I10L A19C V101L E104T] | 0.41 ± 0.019 mg/L
15 | MAELLLGVNLDHIATLRNLRGTTYPDPVQAAFIAEQAGADGITVHLREDRRHITDRDVRILRQTLDTRMNLEMAVTEEMLAIAVETKPHFCCLVPEKRQEVTTEGGLDVAGQRDKMRDACKRLADAGIQVSLFIDADEEQIKAAAEVGAPFIEIHTGCYADAKTDAEQAQELARIAKAATFAASLGLKVNAGHGLTYHNVKAIAAIPEMHELNIGHAIIGRAVMTGLKDAVAEMKRLMLEARG [I10L A19L A23T] | 0.2 ± 0.028 mg/L
16 | MAELLLGVNLDHIATLRNRRGVTYPDPVQAAFIAEQAGADGITVHLREDRRHITDRDVRILRQTLDTRMNLEMAVTEEMLAIAVETKPHFCCLVPEKRQEVTTEGGLDVAGQRDKMRDACKRLADAGIQVSLFIDADEEQIKAAAEVGAPFIEIHTGCYADAKTDAEQAQELARIAKAATFAASLGLKVNAGHGLTYHNVKAIAAIPEMHELNIGHAIIGRAVMTGLKDAVAEMKRLMLEARG [I10L A19R T22V A23T] | 0.561 ± 0.17 mg/L
17 | MAELLLGVNLDHIATLRNARGTTYPDPVQAAFIAEQAGADGITVHLREDRRHITDRDVRILRQTLDTRMNLEMAVTEEMLAIAVETKPHFCCLVPEKRQEVTTEGGLDVAGQRDKMRDACKRLADAGIQVSLFIDADEEQIKAAAEVGAPFIEIHTGCYADAKTDAEQAQELARIAKAATFAASLGLKVNAGHGLTYHNVKAIAAIPEMHELNIGHAIIGRAVMTGLKDAVAEMKRLMLEARG [I10L A23T] | 1.39 ± 0.2 mg/L
18 | MAELLLGVNLDHIATLRNARGTTYPDPVQAAFIAEQAGADGITVHLREDRRHITDRDVRILRQTLDTRMNLEMAVTEEMLAIAVETKPHFCCLVPEKRQIVTTEGGLDVAGQRDKMRDACKRLADAGIQVSLFIDADEEQIKAAAEVGAPFIEIHTGCYADAKTDAEQAQELARIAKAATFAASLGLKVNAGHGLTYHNVKAIAAIPEMHELNIGHAIIGRAVMTGLKDAVAEMKRLMLEARG [I10L A23T E100I] | 4.81 ± 0.11 mg/L
19 | MAELLLGVNLDHIATLRNARGTTYPDPVQAAFIAEQAGADGITVHLREDRRHITDRDVRILRQTLDTRMNLEMAVTEEMLAIAVETKPHFCCLVPEKRQEVTTTGGLDVAGQRDKMRDACKRLADAGIQVSLFIDADEEQIKAAAEVGAPFIEIHTGCYADAKTDAEQAQELARIAKAATFAASLGLKVNAGHGLTYHNVKAIAAIPEMHELNIGHAIIGRAVMTGLKDAVAEMKRLMLEARG [I10L A23T E104T] | 6.49 ± 0.071 mg/L
20 | MAELLLGVNLDHIATLRNARGTTYPDPVQAAFIAEQAGADGITVHLREDRRHITDRDVRILRQTLDTRMNLEMAVTEEMLAIAVETKPHFCCLVPEKRQEVTTTGGLDVAGQRDKMRDACKRLADAGIQVSLFIDADEEQIKAAAEVGAPFIEIHTGCYADAKTDAEQAQELARIAKAATFAASLGLKVNAGHQLTYHNVKAIAAIPEMHELNIGHAIIGRAVMTGLKDAVAEMKRLMLEARG [I10L A23T E104T G194Q] | 0.545 ± 0.21 mg/L
21 | MAELLLGVNLDHIATLRNARGTTYPDPVQAAFIAEQAGADGITVHLREDRRHITDRDVRILRQTLDTRMNLEMAVTEEMLAIAVETKPHFCCLVPEKRQEVTTTGGLDVAGQRDKMRDACKRLADAGIQVSLFIDADEEQIKAAAEVGAPFIEIHTGCYADAKTDAEQAQELARIAKAATFAASLGLKVNAGHGLTYHNVKAIAAIPEMHELNIGHAICGRAVMTGLKDAVAEMKRLMLEARG [I10L A23T E104T I219C] | 3.27 ± 0.22 mg/L
22 | MAELLLGVNLDHIATLRNARGTTYPDPVQAAFIAEQAGADGITVHLREDRRHITDRDVRILRQTLDTRMNLEMAVTEEMLAIAVETKPHFCCLVPEKRQEVTTEGGLDVAGQRDKMRDACKRLADAGIQVSLFIDADEEQIKAAAEVGAPFIEIHTGCYADAKTDAEQAQELARIAKAATFAASLGLKVNAGHCLTYHNVKAIAAIPEMHELNIGHAIIGRAVMTGLKDAVAEMKRLMLEARG [I10L A23T G194C] | 1.27 ± 0.028 mg/L
23 | MAELLLGVNLDHIATLRNARGTTYPDPVQAAFIAEQAGADGITVHLREDRRHITDRDVRILRQTLDTRMNLEMAVTEEMLAIAVETKPHFCCLVPEKRQEVTLEGGLDVAGQRDKMRDACKRLADAGIQVSLFIDADEEQIKAAAEVGAPFIEIHTGCYADAKTDAEQAQELARIAKAATFAASLGLKVNAGHGLTYHNVKAIAAIPEMHELNIGHAIIGRAVMTGLKDAVAEMKRLMLEARG [I10L A23T T103L] | 0.24 mg/L
24 | MAELLLGVNLDHIATLRNARGTTYPDPVQAAFIAEQAGADGITVHLREDRRHITDRDVRILRQTLDTRMNLEMAVTEEMLAIAVETKPHFCCLVPEKRQELTTTGGLDVAGQRDKMRDACKRLADAGIQVSLFIDADEEQIKAAAEVGAPFIEIHTGCYADAKTDAEQAQELARIAKAATFAASLGLKVNAGHGLTYHNVKAIAAIPEMHELNIGHAIIGRAVMTGLKDAVAEMKRLMLEARG [I10L A23T V101L E104T] | 0.257 ± 0.014 mg/L
